Test results: PMC7504102

Biological target: unfused negative control SGFP2
Test: pull-down; SGFP2-fused proteins held on protein G magnetic beads via anti-GFP pAb; incubated with Nluc-ALG-2 (300 ng/mL) in buffer HKM, 0.2% Nonidet P-40, 0.1% gelatin, 100 μM CaCl2, 2 h, 4 °C; bound luciferase activity relative to Sec31A-p (100%)

nanoluciferase (NanoLuc, Nluc)-fused ALG-2, sequence (O75340 whole entry, the tested form may be a part): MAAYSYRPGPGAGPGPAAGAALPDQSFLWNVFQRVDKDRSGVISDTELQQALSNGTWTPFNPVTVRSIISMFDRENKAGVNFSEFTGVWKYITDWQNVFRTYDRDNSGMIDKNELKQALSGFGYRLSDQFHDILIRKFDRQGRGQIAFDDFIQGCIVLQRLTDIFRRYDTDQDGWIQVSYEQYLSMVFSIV

binding activity relative to Sec31A-p (100%): 0.18%
Substance: nanoluciferase (NanoLuc, Nluc)-fused ALG-2 (from UniProt O75340 1-191) (natural protein)
